This note sets out measurements from patent US20240294626A1 (Novartis, published 2024).

Assay [1] concerns the target T1, Recombinant human IL-1β (human, UniProt P01584 117-269). Put plainly: cell-based or functional assay.
Assay [2] concerns the target T2, Recombinant human IL-18 (human, UniProt Q14116 37-193).
T2 construct: also called huIL-18; hulL-18
Put plainly: SET, simultaneous target binding Assay B (both targets in serial dilutions in one mix). As for the experimental part:
(§1) Assay B: The equilibration process (antibody/antigen mix) was performed with both targets in serial dilutions in one mix simultaneously (constant concentration of antibody 10 pM, highest antigen conc. see above). The same mix was then analyzed for its free antibody concentration on IL18 and IL-1β coated plates as described above.

Assay [3] deals with T3, Recombinant marmoset IL-1β (marmoset, UniProt U3E018 117-268). The experiment in a line: cell-based or functional assay.
The target of assay [4] is T2, Recombinant human IL-18. Put plainly: cell-based or functional assay.
The target in assay [5] is T3, Recombinant marmoset IL-1β. Put plainly: SET, simultaneous target binding Assay B (both targets in serial dilutions in one mix). As for the experimental part: as §1
Assay [6] addresses T1, Recombinant human IL-1β. Described as above. As for the experimental part: as §1
Assay [7] concerns the target T4, Recombinant marmoset IL-18 (marmoset, UniProt U3CWC9 37-190).
T4 sequence: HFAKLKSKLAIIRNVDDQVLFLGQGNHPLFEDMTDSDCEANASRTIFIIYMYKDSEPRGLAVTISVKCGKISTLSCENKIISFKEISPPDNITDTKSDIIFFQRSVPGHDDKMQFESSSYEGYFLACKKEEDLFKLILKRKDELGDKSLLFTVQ
The experiment in a line: cell-based or functional assay.

B1: mAb2 (antibody, human IgG1, kappa, V domains shown)
VH: QVQLVESGGGVVQPGRSLRLSCAASGFTFSVYGMNWVRQAPGKGLEWVAIIWYDGDNQYYADSVKGRFTISRDNSKNTLYLQMNGLRAEDTAVYYCARDLRTGPFDYWGQGTLVTVSS
VL: EIVLTQSPDFQSVTPKEKVTITCRASQSIGSSLHWYQQKPDQSPKLLIKYASQSFSGVPSRFSGSGSGTDFTLTINSLEAEDAAAYYCHQSSSLPFTFGPGTKVDIKR
notes: Human anti-IL-1β monoclonal antibody, kappa light chain; also called IL-1β antibody
In the case of B1, in the assay with Recombinant human IL-1β [1], the “IC50, inhibition of IL-6 production in human PBMC stimulated with recombinant human IL-1β (60 pM)” value worked out at 0.29 nM and the “IC50, inhibition of IL-6 production in human dermal fibroblasts stimulated with recombinant human IL-1β (6 pM)” value was found to be 0.031 nM. In the assay with Recombinant human IL-18 [2], the binding result is given as “no binding (tested: highest antigen conc. 5 nM)”. Further, in assay [3], the “IC50, inhibition of IL-6 production in human dermal fibroblasts stimulated with recombinant marmoset IL-1β (18 pM), Exp. C” value turned out to be 0.114 nM; the “IC50, inhibition of IL-6 production in marmoset dermal fibroblasts stimulated with recombinant marmoset IL-1β (18 pM), Exp. A” value stood at 0.095 nM; the “IC50, inhibition of IL-6 production in marmoset dermal fibroblasts stimulated with recombinant marmoset IL-1β (18 pM), Exp. B” value was found to be 0.138 nM.

B2: mAb1 (antibody, human IgG1, lambda, L234A L235A, V domains shown)
VH: EVQLVQSGAEVKKPGSSVKVSCKASGGTFKSYAISWVRQAPGQGLEWMGNIIPMTGQTYYAQKFQGRVTITADESTSTAYMELSSLRSEDTAVYYCARAAYHPLVFDNWGQGTLVTVSS
VL: DIVLTQPPSVSGAPGQRVTISCSGSSSNIGNHYVNWYQQLPGTAPKLLIYRNNHRPSGVPDRFSGSKSGTSASLAITGLQSEDEADYYCQSWDYSGFSTVFGGGTKLTVLG
notes: Human anti-IL-18 monoclonal antibody, lambda light chain; also called IL-18 antibody
Turning to B2, in the assay with Recombinant human IL-18 [4], the “IC50, inhibition of IFNγ production in KG-1 cells stimulated with recombinant human IL-18 (3 nM) and human IL-12 (1 ng/ml)” value amounted to 0.035 nM; the “IC50, inhibition of IFNγ production in human PBMC stimulated with recombinant human IL-18 (3 nM) and human IL-12 (1 ng/ml)” value turned out to be 0.78 nM. For the same molecule, the binding result in assay [5] is recorded as “no binding (tested: highest antigen conc. 0.5 nM)”. The binding result with Recombinant human IL-1β [6] is “no binding (tested: highest antigen conc. 0.5 nM)”. In assay [7], the “IC50, inhibition of IFNγ production in human PBMC stimulated with recombinant marmoset IL-18 (1 nM) and human IL-12 (10 ng/ml)” value turned out to be 6.6 nM; the “IC50, inhibition of IFNγ production in marmoset whole blood stimulated with recombinant marmoset IL-18 (0.3 nM) and human IL-12 (10 ng/ml)” value was 4.7 nM; the “IC50, inhibition of IFNγ production in marmoset whole blood stimulated with recombinant marmoset IL-18 (3 nM) and human IL-12 (10 ng/ml)” value amounted to 181 nM.
